Assay results from patent EP2669372A1, “HPPD variants and methods of use” (Bayer CropScience AG, priority 2010, dated 2012).

Substrate: O=C(O)C(=O)Cc1ccc(O)cc1
Assay: purified protein, by the assay type
Conditions: other: substrate HPP varied between 10 and 400 µM; SEQ ID No. 32; pH 7.8

B1: Arabidopsis thaliana HPPD "SEQ ID No. 32" (Arabidopsis thaliana) (protein)
chain: MGHQNAAVSENQNHDDGAASSPGFKLVGFSKFVRKNPKSDKFKVKRFHHIEFWCGDATNVARRFSWGLGMRFSAKSDLSTGNMVHASYLLTSGDLRFLFTAPYSPSLSAGEIKPTTTASIPSFDHGSCRSFFSSHGLGVRAVAIEVEDAESAFSISVANGAIPSSPPIVLNEAVTIAEVKLYGDVVLRYVSYKAEDTEKSEFLPGFERVEDASSFPLDYGIRRLDHAVGNVPELGPALTYVAGFTGFHQFAEFTADDVGTAESGLNSAVLASNDEMVLLPINEPVHGTKRKSQIQTYLEHNEGAGLQHLALMSEDIFRTLREMRKRSSIGGFDFMPSPPPTYYQNLKKRVGDVLSDDQIKECEELGILVDRDDQGTLLQIFTKPLGDRPTIFIEIIQRVGCMMKDEEGKAYQSGGCGGFGKGNFSELFKSIEEYEKTLEAKQLVG
B1 gave a Km of 6.3 µM.
